Results reported in patent publication US20260092113A1 (Sanofi, published 2026).

Biological target: T1, human OX40 on the surface of target cells (HEK293 cells expressing human OX40, jurkat cells engineered to … (human, UniProt P43489 29-277))
T1 construct: whole, on cells; also called huOX40
T1 sequence (looked up): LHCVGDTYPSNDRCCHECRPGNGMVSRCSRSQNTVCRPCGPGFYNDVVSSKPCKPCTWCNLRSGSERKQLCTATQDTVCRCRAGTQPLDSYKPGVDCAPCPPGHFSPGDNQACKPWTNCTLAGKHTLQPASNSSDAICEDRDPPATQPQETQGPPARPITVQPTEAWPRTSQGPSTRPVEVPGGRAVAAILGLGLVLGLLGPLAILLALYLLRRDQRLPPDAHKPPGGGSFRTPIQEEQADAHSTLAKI
Assay: flow cytometry on HEK293 cells expressing human OX40, anti-human IgG Fc PE, MFI
From the text: The cell lines used were HEK293 cells expressing human OX40 or cyno OX40, jurkat cells, and jurkat cells engineered to express human OX40. […] Frozen target cells were thawed and seeded at 5×10⁴ cells per well.
For live dead cell discrimination cells were stained according to manufacturer's protocol using the LIVE/DEAD™ Fixable Yellow Dead Cell Stain Kit (Molecular Probes, L34959).

EC50 (read off the curve): ~0.8 nM
B1: bispecific antibody L1 (anti-CD28/anti-OX40) (bispecific antibody, human IgG1, kappa, L234A L235A)
light: not shown
heavy: not shown
chain: DVQLVESGGGVVQPGGSLRLSCAASGSFFSIDTMDWYRQAPGKQRELVTGVTSGGLTNYADSVKGRFTISIDNAKNTVYLQMNSLRPEDTALYYCSARIRTSGGGGWSTYWGQGTLVTVSSGGGGSDKTHTCPPCPAPEAAGGPSVFLFPPKPKDTLMISRTPEVTCVVVDVSHEDPEVKFNWYVDGVEVHNAKTKPREEQYNSTYRVVSVLTVLHQDWLNGKEYKCKVSNKALPAPIEKTISKAKGQPREPQVCTLPPSRDELTKNQVSLSCAVKGFYPSDIAVEWESNGQPENNYKTTPPVLDSDGSFFLVSKLTVDKSRWQQGNVFSCSVMHEALHNRFTQKSLSLSPG
notes: also called L1 & L4 OX40 arm x L1 & L3 & L2 CD28 arm
